Results published in patent US20100137155A1, “BIOSENSOR, METHOD FOR FABRICATING THE SAME, DETECTING METHOD UTILIZING THE SAME” (SHARP KABUCHIKI KAISHA, priority 2006, published 2010).

What was measured:
Cry-J1 = biological target: T1, Cry-J1 (Cryptomeria japonica, UniProt P18632); assay: ELISA detection efficiency for Cry-J1 of peptides bonded to PEG-DG linkers on aminated plate (Examples 2-5); assay type: binding, Japanese cedar (Cryptomeria japonica); conditions: for reactivity with respect to Cry-J1 (SH1 compared with AL1) / inclination of the 450 nm light absorbance versus antigen Cryj1 concentration: PEG-DG chain length 11.0 Å, n=2; for reactivity with respect to Cry-J1 (SH1 compared with AL1): FIG. 10; for inclination of the 450 nm light absorbance versus antigen Cryj1 concentration: antigen Cryj1 0 to 2.0 μg/mL
T1 sequence (P18632 22-374): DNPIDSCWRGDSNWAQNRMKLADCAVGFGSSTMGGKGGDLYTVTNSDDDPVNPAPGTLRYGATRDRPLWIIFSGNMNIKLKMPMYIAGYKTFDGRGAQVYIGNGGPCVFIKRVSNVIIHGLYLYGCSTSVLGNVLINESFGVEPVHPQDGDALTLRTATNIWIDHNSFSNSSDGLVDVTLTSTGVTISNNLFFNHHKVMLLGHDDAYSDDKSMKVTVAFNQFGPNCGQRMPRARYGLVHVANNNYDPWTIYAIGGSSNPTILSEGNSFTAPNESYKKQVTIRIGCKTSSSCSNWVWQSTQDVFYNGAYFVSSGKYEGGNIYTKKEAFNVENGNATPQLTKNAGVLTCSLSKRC
Protocol: In order to examine influences that the length of the linker has on the detection sensitivity of the biosensor, the following experiment was carried out. A 5 μg/mL aqueous solution of acetyl-NH-TEYTIHWWK-COOH(SH1) serving as an artificially synthesized CRY-J1 recognition peptide was mixed with a sodium hydrogen carbonate buffer solution (pH=9) containing 45 μM poly(or mono)ethylene glycol diglycidyl ether (PEG-DG) in order to cause a solid phase reaction.
As PEG-DG (poly(or mono)ethylene glycol diglycidyl ether) serving as a linker molecule, six kinds thereof with different chain lengths were selected. Specifically, sample 1: 8.3 Å chain length, degree of polymerization n=1; sample 2: 11.0 Å chain length, degree of polymerization n=2; sample 3: 16.6 Å chain length, degree of polymerization n=4; sample 4: […] chain length, degree of polymerization n=9; sample 5: 41.4 Å chain length, degree of polymerization n=13; and sample 6: 66.2 Å chain length, degree of polymerization n=22. The PEG-DG was selected from the Denacole EX series of Nagase ChemteX Corporation.
Using an aminated 96-hole ELISA method plate (Sumilon MS-3608F, available from SUMITOMO BAKELITE Co., Ltd.) as a solid phase, the solid phase reaction was completed in 24 hours at room temperature.
Blocking One, available from Nacalai Tesque, Inc., was used for the blocking, and the reaction was carried out at room temperature and completed in 24 hours.
To each of the linker molecules with different lengths, 50 μL of each of the acetyl-NH-TEYTIHWWK-COOH diluted solutions of 0 μg/mL, 0.2 μg/mL, 0.5 μg/mL, 1.0 μg/mL, 2.0 μg/mL, and 5.0 μg/mL was dropped to cause bonding between the linker and the peptide.
Anti-cedar pollen antigen Cry-J1-HRP (Horse Radish Peroxidase) (SEIKAGAKU CORPORATION) serving as a secondary antibody was prepared by diluting it 1000-fold with a phosphoric acid buffer solution containing 0.1% Tween 20, and 100 μL of this preparation solution was added to cause a reaction for one hour at room temperature. […]
The solid phase reaction was caused by mixing a 5 μg/mL aqueous solution of acetyl-NH-KTEYTIHWWK-COOH with a sodium hydrogen carbonate buffer solution (pH=9) containing 45 μM poly(or mono)ethylene glycol diglycidyl ether (PEG-DG).
The solid phase reaction was caused by mixing a 5 μg/mL aqueous solution of acetyl-NH-TEETIWWWK-COOH with a sodium hydrogen carbonate buffer solution (pH=9) containing 45 μM polyethylene glycol diglycidyl ether (PEG-DG).
As polyethylene glycol diglycidyl ether (PEG-DG), one such that the chain length was 11.0 Å and the degree of polymerization was n=2 was used.
The reaction of the artificially synthesized peptide AM was carried out in such a manner that 50 μL of each of the antigen Cryj1 diluted solutions of 0 μg/mL, 0.2 μg/mL, 0.5 μg/mL, 1.0 μg/mL, 2.0 μg/mL, and 5.0 μg/mL was dropped to cause bonding between the linker and the peptide.
For acetyl-NH-TEYTIHWWK-COOH(SH1) serving as the artificially synthesized Cry-J1 recognition peptide, a solid phase was carried out in accordance with example 2. The poly(or mono)ethylene glycol diglycidyl ether (PEG-DG) that was used was such that the chain length was 11.0 Å and the degree of polymerization was n=2.

[1] = biological target: T2, pollen allergen protein (Cry-J1) (Cryptomeria japonica, UniProt P18632); assay: ELISA of Cry-J1 capture by peptide immobilized on amino group-bonded plate via polyethylene diglycidyl ether (Example 1); assay type: binding, Japanese cedar (Cryptomeria japonica); conditions: Cry-J1 0, 1, 5, 10 ng/mL; peptide immobilized through polyethylene diglycidyl ether; FIG. 5
T2 construct: purchased SEIKAGAKU CORPORATION
T2 sequence (P18632 22-374): T1 sequence (P18632 22-374)
Protocol: The reactivity between anti-Cry-J1 antibody H chain hypervariable area peptide (acetylated TEYTIHWWK) and pollen allergen protein (Cry-J1) was studied by the ELISA method. The experiment method can be summarized as follows.
To a well of an amino group-bonded plate (MS-3608F, available from SUMITOMO BAKELITE Co., Ltd.), a 200 μL solution of 0.0095 mg/mL acetylated TEYTIHWWK and 0.018 mg/mL polyethylene diglycidyl ether was added, and the resulting product was settled for a night at 4° C.
The peptide solution was taken out, followed by addition thereto 200 μL Blocking One (available from Nacalai Tesque, Inc.), and the resulting product was subjected to blocking processing.
After the blocking processing, the blocking solution was taken out and the well was washed with PBS containing 0.05% Tween 20. As the washing, the operation of adding and taking out 200 μL PBS containing 0.05% Tween 20 (20 mM of sodium phosphate, pH 7.4, 0.15 M of NaCl) to and of the well was carried out three times. […]
To the well, 100 μL color developing solution (available from Nacalai Tesque, Inc.) was added to cause a reaction for 10 minutes at room temperature. After the 10 minutes of reaction, 100 μL stop solution was added, and a 450 nm light absorbance was measured with a plate reader (available from Bio-Rad Laboratories, Inc.).

Substance | reactivity with respect to Cry-J1 (SH1 compared with AL1) (Cry-J1) | inclination of the 450 nm light absorbance versus antigen Cryj1 concentration (Cry-J1) | other results
acetyl-NH-KTEYTIHWW-COOH (Ac-KTEYTIHWW-OH) [anti-Cry-J1 antibody H chain hypervariable area peptide with N terminal lysine, α-amino group acetylated] | – | – | detection efficiency with respect to Cry-J1 (inclination of 450 nm light absorbance) (Cry-J1; linker bonded at N terminal lysine side chain, linker lengths of 20 to 60 Å (degree of polymerization n=4 to 9), FIG. 7): high
acetyl-NH-KTEYTIHWWK-COOH (Ac-KTEYTIHWWK-OH) [Cry-J1 recognition peptide with a lysine residue at both terminals, N terminal α-amino group acetylated] | – | – | detection efficiency with respect to Cry-J1 (inclination of 450 nm light absorbance) (Cry-J1; one linker at N terminal lysine and another at C terminal lysine, linker lengths 8.3 to 66.2 Å (n=1 to 22), FIG. 8): substantially the same irrespective of the linker length
acetyl-NH-TEETIWWWK-COOH (Ac-TEETIWWWK-OH) [peptide in which tyrosine was changed to glutamic acid and histidine to tryptophan] | substantially the same reactivity | linear | –
acetyl-NH-TEYTIHWWK-COOH (Ac-TEYTIHWWK-OH) [artificially synthesized CRY-J1 recognition peptide; only α-amino group of N terminal T acetylated, lysine added to C terminal] | substantially the same reactivity | linear | reactivity between peptide and pollen allergen protein (Cry-J1), 450 nm light absorbance [1]: captured by the peptide depending on the concentration of the protein; detection efficiency with respect to Cry-J1 (inclination of 450 nm light absorbance) (Cry-J1; linker bonded at C terminal lysine, linker lengths of 15 Å or less (n=1 or 2) compared with 16.6 Å or more (n=4 or greater), FIG. 6): higher
